# Results from US20200347144A1 (SHANGHAI HYAMAB BIOTECH, published 2020).
# B1: 100F3C4 (antibody, V domains shown)
# VH: QVQLQESGPGLVKPSGTLSLTCAVSGGSISSSNWWSWVRQPPGKGLEWIGEIYHSGSTNYNPSLKSRVTMSVDKSKNQFSLELRSVTAADTAVYYCARDAVDAYYYYYGMDVWGQGTTVTVSS
# VL: DIQLTQSPSFLSASVGDRVTITCRASQGISSYLAWYQQKPGKAPKLLIYAASTLQSGVPSRFSGSGSGTEFTLTISSLQPEDFATYYCQHLNSYPFTFGPGTKVDLK
# B2: his-muCD8a-4-1BBL^ECD fusion protein (ligand, UniProt P01731 28-194, looked up)
# chain: KPQAPELRIFPKKMDAELGQKVDLVCEVLGSVSQGCSWLFQNSSSKLPQPTFVVYMASSHNKITWDEKLNSSKLFSAMRDTNNKYVLTLNKFSKENEGYYFCSVISNSVMYFSSVVPVLQKVNSTTTKPVLRTPSPVHPTGTSQPQRPEDCRPRGSVKGTGLDFACDREGPELSPDDPAGLLDLRQGMFAQLVAQNVLLIDGPLSWYSDPGLAGVSLTGGLSYKEDTKELVVAKAGVYYVFFQLELRRVVAGEGSGSVSLALHLQPLRSAAGAAALALTVDLPPASSEARNSAFGFQGRLLHLSAGQRLGVHLHTEARARHAWQLTQGATVLGLFRVTPEIPAGLPSPRSE
# notes: also called 4-1BB ligand protein; not shown: his-tag on the N side
# Key:
# [1] = biological target: T1, monkey 4-1BB on CHOK1 cells (monkey); test: FACS, CHOK1-c4-1BB cells; Ab 0.08 ug/ml
# T1 construct: whole, on cells; also called CHOK1-c4-1BB
# From the text: (§1) The pIRES plasmid carrying the full-length gene of monkey-derived […] (the preparation method is the same as the preparation method of the pCpC vector carrying the human-derived IgG Fc fragment (hFc) in “Preparation of immunogen A” of the step (1) in Example 1, in which the database accession number of the amino acid sequence of the extracellular region of monkey 4-1BB protein (Phe19-Thr239) is G7PSE7) was transfected into CHOK1 cell line to obtain CHOK1 stable transfected cell line containing monkey 4-1BB (herein referred to as CHOK1-c4-1BB stable cell line). The CHOK1-h4-1BB stable cell line and the CHOK1-c4-1BB stable cell line were expanded and cultivated to 90% confluence in T-75 cell culture flasks. The medium was exhausted, and washed twice with HBSS buffer (Hanks Balanced Salt Solution, purchased from Invitrogen), and then the cells were treated and collected with enzyme-free cell dissociation solution (Versene solution, purchased from Life Technology). The cells were washed twice with HBSS buffer, and after cell counting, the cells were diluted with HBSS buffer to 2×10⁶ cells per ml, and 1% goat serum blocking solution was added, the percentage being the mass percentage. It was incubated on ice for 30 minutes, and then washed twice with HBSS buffer by centrifugation. The collected cells were suspended in FACS buffer (HBSS containing 1% BSA, the percentage was the mass percentage) to 2×10⁶ cells/mL, and 100 μl per well was added to a 96-well FACS reaction plate. The purified 4-1BB antibody test sample obtained in Example 2 was added, 100 microliters per well and incubated on ice for 2 hours. […] It was washed three times with FACS buffer by centrifugation, and 100 μl of fixative [4% (v/v) paraformaldehyde] per well was added to suspend cells, and washed twice with FACS buffer after 10 minutes by centrifugation. The cells were suspended with 100 microliters of FACS buffer, and the results were detected and analyzed with FACS (FACS Calibur, purchased from BD).
# [2] = biological target: T1, monkey 4-1BB on CHOK1 cells; test: FACS, CHOK1-c4-1BB cells; Ab 0.016 ug/ml
# From the text: as §1
# [3] = biological target: T2, human 4-1BB, full length, on transfected cells (human, UniProt Q07011 24-255); test: FACS, CHOK1-h4-1BB cells; Ab 0.0032 ug/ml
# T2 construct: whole, on cells; also called CHOK1-h4-1BB
# T2 sequence (Q07011 24-255): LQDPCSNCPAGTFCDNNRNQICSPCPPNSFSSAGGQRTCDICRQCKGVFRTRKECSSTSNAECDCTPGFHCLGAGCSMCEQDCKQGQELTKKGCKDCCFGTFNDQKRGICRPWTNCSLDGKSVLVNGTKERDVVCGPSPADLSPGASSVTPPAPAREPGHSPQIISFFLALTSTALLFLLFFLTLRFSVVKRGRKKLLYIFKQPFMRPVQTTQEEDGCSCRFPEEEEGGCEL
# From the text: as §1
# [4] = biological target: T2, human 4-1BB, full length, on …; test: FACS, CHOK1-h4-1BB cells; Ab 10 ug/ml
# From the text: as §1
# [5] = biological target: T2, human 4-1BB, full length, on …; test: FACS, CHOK1-h4-1BB cells; Ab 0.016 ug/ml
# From the text: as §1
# [6] = biological target: T1, monkey 4-1BB on CHOK1 cells; test: FACS, CHOK1-c4-1BB cells; Ab 2 ug/ml
# From the text: as §1
# [7] = biological target: T2, human 4-1BB, full length, on …; test: FACS, CHOK1-h4-1BB cells; Ab 0.00013 ug/ml
# From the text: as §1
# [8] = biological target: T2, human 4-1BB, full length, on …; test: FACS, CHOK1-h4-1BB cells; Ab 2 ug/ml
# From the text: as §1
# [9] = biological target: T2, human 4-1BB, full length, on …; test: FACS, CHOK1-h4-1BB cells; Ab 0.4 ug/ml
# From the text: as §1
# [10] = biological target: T1, monkey 4-1BB on CHOK1 cells; test: FACS, CHOK1-c4-1BB cells; Ab 0.4 ug/ml
# From the text: as §1
# [11] = biological target: T1, monkey 4-1BB on CHOK1 cells; test: FACS, CHOK1-c4-1BB cells; Ab 0.0032 ug/ml
# From the text: as §1
# [12] = biological target: T1, monkey 4-1BB on CHOK1 cells; test: FACS, CHOK1-c4-1BB cells; Ab 0.00064 ug/ml
# From the text: as §1
# [13] = biological target: T1, monkey 4-1BB on CHOK1 cells; test: FACS, CHOK1-c4-1BB cells; Ab 10 ug/ml
# From the text: as §1
# [14] = biological target: T2, human 4-1BB, full length, on …; test: FACS, CHOK1-h4-1BB cells; Ab 0.08 ug/ml
# From the text: as §1
# [15] = biological target: T2, human 4-1BB, full length, on …; test: FACS, CHOK1-h4-1BB cells; Ab 0.00064 ug/ml
# From the text: as §1
# [16] = biological target: T1, monkey 4-1BB on CHOK1 cells; test: FACS, CHOK1-c4-1BB cells; Ab 0.00013 ug/ml
# From the text: as §1
# [17] = biological target: T3, hFc-tagged human 4-1BB extracellular domain protein (4-1BB-hFc) (human, UniProt Q07011 24-186, limits assumed); test: ELISA: 4-1BB-hFc coated at 0.5 µg/mL, his-muCD8a-4-1BBL titrated, detection by biotin anti-mouse CD8a and streptavidin-HRP, OD450
# T3 construct: also called immunogen A; 4-1BB^ECD-hFc; not shown: human IgG Fc fragment (hFc) of the pCpC vector
Binder,average fluorescence intensity [1] [MFI],average fluorescence intensity [2] [MFI],average fluorescence intensity [3] [MFI],average fluorescence intensity [4] [MFI],average fluorescence intensity [5] [MFI],average fluorescence intensity [6] [MFI],average fluorescence intensity [7] [MFI],average fluorescence intensity [8] [MFI],average fluorescence intensity [9] [MFI],average fluorescence intensity [10] [MFI],average fluorescence intensity [11] [MFI],average fluorescence intensity [12] [MFI],average fluorescence intensity [13] [MFI],average fluorescence intensity [14] [MFI],average fluorescence intensity [15] [MFI],average fluorescence intensity [16] [MFI],EC50 (read off the curve) [17] [µg/mL]
B1,51.1,15.2,4.6,458,12.7,479,2,390,154,204,5.4,2.9,552,43.1,2.5,2.2,
B2,,,,,,,,,,,,,,,,,~0.03
